Assay results from patent publication US20220380801A1, “TRIPARTITE SYSTEMS FOR PROTEIN DIMERIZATION AND METHODS OF USE” (priority 2019, published 2022).

B1: PRSIM_04: scFv PRSIM binding molecule, SEQ ID NO: 11 (protein)
scFv: QVQLVQSGAEVKKPGSSVKVSCKASGGTFSSYAISWVRQAPGQGLEWMGGIIPIFGTANYAQKFQGRVTITADESTSTAYMELSSLRSEDTAVYYCARGMAHFYQFDLWGQGTLVTVSSGGGGSGGGGSGGGGSAQSVLTQPPSASGTPGQRVTISCSGSSSNIGSNTVNWYQQLPGTAPKLLIYSNNQRPSGVPDRFSGSKSGTSASLAISGLQSEDEADYYCAAGDHDHEHVVFGGGTKLTVL
modifications: PRSIM_04
B2: PRSIM_72: scFv PRSIM binding molecule, SEQ ID NO: 14 (protein)
scFv: B1 scFv
modifications: PRSIM_72
B3: PRSIM_67: scFv PRSIM binding molecule, SEQ ID NO: 13 (protein)
scFv: EVQLVQSGAEVKKPGAAVRISCKTSGYVFTSYYVHWVRQAPGQGLEWMGVINPSGGNTNYAQKFQDRVTMTRDTSTTTVYMELSSLMFDDTAVYYCAKRDYGGPLANWGRGTLVTVSSGGGGSGGGGSGGGGSALSYELTQPPSVSEAPRQRVTISCSGSSSNIGNNAVNWYQQLPGKAPKLLIFYDDLLPSGVSDRFSGSKSGTSASLAISGLQSEDEADYYCAAWDDSLNGLVFGTGTKLTVL
modifications: PRSIM_67
B4: PRSIM_23: Tn3 protein specific for HCV NS3/4A PR (S139A):simeprevir complex, SEQ ID NO: 5 (protein)
chain: RLDAPSQIEVKDVTDTTALITWVDPRYDDIWWFELTYGIKDVPGDRTTIKLYLNDPYYSIGNLKPDTEYEVSLISYTGDSYSRSGSNPAKITFKTGL
modifications: PRSIM_23
B5: PRSIM_75: scFv PRSIM binding molecule, SEQ ID NO: 15 (protein)
scFv: EVQLVQSGAEVKKPGSSVKVSCKASGGSFNSYTLDWVRQAPGQGLEWMGGIIPVFGSPNYGQKFQGRVTITADESTSTAYMELSSLKSDDTAVYYCARGLVYQPLDSWGRGTLVTVSSGGGGSGGGGSGGGGSAQAVLTQPSSASGTPGQRVTISCSGSSSNIGSYTVNWYQQFPGTAPKLLIYSNTQRPSGVPDRFSGSKSGTSASLAISGLQSEDEADYYCAAWDDSLNGWVFGGGTKVTVL
modifications: PRSIM_75
B6: PRSIM_57: scFv specific for HCV NS3/4A PR (S139A):simeprevir complex, SEQ ID NO: 12 (protein)
scFv: QVQLVQSGAEVKKPGSSVKVSCKASGGTFSSYAISWVRQAPGQGLEWMGGIIPIFGTANYAQKFQGRVTITADESTSTAYMELSSLRSEDTAVYYCARHTNYITVFDYWGQGTLVTVSSGGGGSGGGGSGGGGSAQSVLTQPPSASGTPGQRVTISCSGSSSNIGSNTVNWYQQLPGTAPKLLIYSNNQRPSGVPDRFSGSKSGTSASLAISGLQSEDEADYYCAAWDHHWEQVVFGGGTKLTVL
modifications: PRSIM_57
B7: PRSIM_33: Tn3 PRSIM binding molecule, SEQ ID NO: 7 (protein)
chain: RLDAPSQIEVKDVTDTTALITWYPPGRWYDDIWYFELTYGIKDVPGDRTTIKLARGDDVYSIGNLKPDTEYEVSLISWGPDRGDRAGSNPAKITFKTGL
modifications: PRSIM_33

Molecular target: T1, HCV NS3/4A PR (S139A) (Hepatitis C virus subtype 1a, UniProt A8DG50, A1066T/I1043Q/I1044E/L1039E/L1040E/L1047Q/S1165A, form not given)
Test: Phage ELISA
Assay type: binding
Details: phage ELISA signal with simeprevir divided by signal without simeprevir
Experimental: Specific binding to HCV NS3/4A PR (S139A) was assessed by phage ELISA using single phagemid scFv or Tn3 clones induced for expression as described ((Osbourn et al. 1996)). Briefly, individual TG1 colonies encoding phage clones from round 3 and round 4 selection outputs, and negative control clones, were grown in 96 well plates at […] shaking at 280 rpm to log phase in media containing 100 μg/ml ampicillin and 2% (w/v) glucose. Helper phage was then added to each well and the plates incubated at […] for 1 hour, shaking at 150 rpm. Plates were then centrifuged at 4500 rpm for 10 minutes at room temperature and the media was removed and replaced with media containing 100 μg/ml ampicillin and 50 μg/ml kanamycin. Plates were then incubated overnight at 25° C., shaking at 280 rpm. The following day, phage preparations were blocked by adding an equal volume of 2×PBS containing 6% (w/v) skimmed milk powder (Marvel) to each well of the plate.
Biotinylated HCV NS3/4A PR (S139A) was used to coat 96 well streptavidin-coated plates at 5 μg/ml […] in the presence and absence of a 3-fold excess of simeprevir (5.6 μM). Coated plates were washed with PBS and blocked with PBS containing 3% (w/v) skimmed milk powder (Marvel) for one hour. Following this blocking step, the plate wells were washed three times with PBS, prior to adding the blocked phage preps (produced as described in the phage rescue section). Phage preps were incubated with the antigens for 1 hour at room temperature prior to washing three times with PBS/Tween 20 (0.1% v/v). Phage that bound specifically to the antigen coated plate were detected using an anti-M13 phage-HRP tagged antibody (GE Healthcare), followed by detection using 3,3′, 5,5′-Tetramethylbenzidine (TMB; Sigma). The detection reaction was stopped using 0.5 M H2S04 and plates were read using a […] at 450 nm. Fluorescent readings determined for each clone binding to biotinylated HCV NS3/4A PR (S139A) in the presence of simeprevir was compared to those binding in the absence of simeprevir, by dividing the signal observed in the presence of simeprevir to the signal observed in the absence of simeprevir.

Molecule	Binding fold change [(HCV protease + Simeprevir binding)/HCV protease alone]
B1	30.3
B2	12.5
B3	12.7
B4	23.8
B5	6.9
B6	15.7

Molecular target: T1, HCV NS3/4A PR (S139A)
Test: HTRF binding screen
Details: in the presence of simeprevir
Experimental: scFv and Tn3 PRSIM binding molecules that were selective for the HCV NS3/4A PR (S139A) were identified in homogeneous time-resolved fluorescence (HTRF®) assays run in parallel to measure binding in the presence and absence of simeprevir. HCV NS3/4A PR (S139A), and serial dilutions of purified PRSIM binding molecules, were prepared in assay buffer (PBS containing 0.4 M potassium fluoride and 0.1% BSA). Streptavidin cryptate (Cisbio) was pre-mixed with either anti-FLAG XL665 (to detect the Tn3 molecules) or anti-c-myc XL665 (to detect the scFv molecules) in assay buffer. For each assay 2.5 μl of sample titration was added to 2.5 μl HCV NS3/4A PR (S139A) and 2.5 μl of pre-mixed detection reagents. Either 2.5 μl simeprevir or 2.5 μl of a DMSO blank were also added to each well. Background was defined using wells with zero sample addition. Assay plates were incubated overnight at 4° C., prior to reading the time resolved fluorescence at 620 nm and 665 nm emission wavelengths using a PerkinElmer Envision plate reader. Data was analysed by calculating % Delta F values for each sample. Delta F was determined according to equation 1.
% Delta F=((sample 665 nm/620 nm ratio value)−(background 665 nm/620 nm ratio value)/(background 665 nm/620 nm ratio value))×100 Equation 1
Selective binding molecules are defined as those scFv and Tn3 PRSIM binding molecules that bind to HCV NS3/4A PR (S139A) in complex with simeprevir and no binding to HCV NS3/4A PR (S139A).

Molecule	HTRF max. signal (% delta F)
B1	1055 % delta F
B2	1107 % delta F
B3	1708 % delta F
B4	1573 % delta F
B7	1704 % delta F
B5	1030 % delta F
B6	1076 % delta F

Molecular target: BSA (Bos taurus, UniProt P02769)
Test: Biacore 8K BSA control
Assay type: binding
Parameters: key: # = no binding; * = minimal non-specific binding
Details: 10 nM simeprevir present
Experimental: The HCV NS3/4A PR (S139A), or BSA control, was diluted 1:4 (1.25-20 nM)±10 nM simeprevir in 10 mM Hepes pH 7.4, 150 mM NaCl, 0.05% Surfactant P20, 0.01% DMSO, ensuring constant simeprevir and DMSO concentration. The samples were flowed over the chip at 50 μl/min using single cycle kinetics, with 120 sec association and 600 sec dissociation. The chip surface was regenerated with two 20 sec pulses of 10 mM Glycine-HCl pH 3.0. The final sensorgrams were analysed using the Biacore 8K Evaluation Software and the affinity constant KD was determined using a 1:1 binding model. The same method was used for measuring the affinity of the HCV NS3/4A PR mutants for PRSIM_23 with minor deviations. The mutants were diluted 1:4 (2.5-40 nM)±simeprevir in 10 mM Hepes pH 7.4, 150 mM NaCl, 0.05% Surfactant P20, 0.08% DMSO, ensuring constant simeprevir and DMSO concentration. The samples were flowed over the chip at 50 μl/min using single cycle kinetics, with 180 sec association and 600 sec dissociation.

Molecule	BSA control
B1	#
B2	#
B3	#
B4	#
B7	#
B5	#
B6	#
